According to doi:10.1101/2022.08.02.502557:

Biological target: Trimeric LHCII complexes (the major antenna complex of photosystem II) (spinach)
Test: native gel or EMSA

## Trimeric LHCII complexes (the major antenna complex of photosystem II)
  stoichiometry N: 3
